In publication PMC3695512, “Recognition of two distinct elements in the RNA substrate by the RNA-binding domain of the T. thermophilus DEAD box helicase Hera” one finds binding result and Kd data, which are given here for seven molecules.

For one data set, the target named is T1, Hera full-length (Thermus thermophilus, UniProt O07897 1-510).
T1 sequence: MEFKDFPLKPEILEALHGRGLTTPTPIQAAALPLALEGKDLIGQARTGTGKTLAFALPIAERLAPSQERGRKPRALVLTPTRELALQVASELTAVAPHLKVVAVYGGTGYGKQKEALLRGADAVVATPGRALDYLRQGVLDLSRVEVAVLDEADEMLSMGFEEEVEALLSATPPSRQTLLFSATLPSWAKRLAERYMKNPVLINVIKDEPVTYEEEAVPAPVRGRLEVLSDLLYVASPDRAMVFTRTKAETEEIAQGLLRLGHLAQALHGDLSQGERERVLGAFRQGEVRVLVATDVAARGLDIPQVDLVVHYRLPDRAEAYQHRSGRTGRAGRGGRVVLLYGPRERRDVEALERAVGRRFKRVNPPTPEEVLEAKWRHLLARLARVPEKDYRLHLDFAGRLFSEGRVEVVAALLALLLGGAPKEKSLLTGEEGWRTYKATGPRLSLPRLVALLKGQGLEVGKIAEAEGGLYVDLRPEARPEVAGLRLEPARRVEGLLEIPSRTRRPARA
In words: fluorescence anisotropy; 1 uM Hera; complex forms instantaneously; Anisotropy: 50 mM Tris/HCl pH 7.5, 150 mM NaCl, 5 mM MgCl2 (Fig 2), 25 C, 50 nM RNA; EMSA: same Tris/NaCl, 12% glycerol, 25 C; NMR: 25 mM Bis-Tris/HCl pH 6.0, 50 mM NaCl, 10% D2O, 37 C. The note with it: protein: recombinant; chain copies: 2; label: 3'-fluorescein on 9mer; 9 bp duplex (strand 1 nt 3-11) plus 3' hairpin; 5' overhang 2 nt.

Data set [1] deals with T2, Hera_RBD (Thermus thermophilus, UniProt O07897 424-510).
T2 sequence: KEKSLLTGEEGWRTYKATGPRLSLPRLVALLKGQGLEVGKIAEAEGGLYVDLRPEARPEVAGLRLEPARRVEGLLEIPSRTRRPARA
The experiment in a line: fluorescence anisotropy; Anisotropy: 50 mM Tris/HCl pH 7.5, 150 mM NaCl, 5 mM MgCl2 (Fig 2), 25 C, 50 nM RNA; EMSA: same Tris/NaCl, 12% glycerol, 25 C; NMR: 25 mM Bis-Tris/HCl pH 6.0, 50 mM NaCl, 10% D2O, 37 C. The note with it: protein: recombinant; label: 5'-fluorescein.

Another data set concerns the target T3, Hera_RBD_dC-tail (Thermus thermophilus, UniProt O07897 424-491, del492-510).
T3 sequence: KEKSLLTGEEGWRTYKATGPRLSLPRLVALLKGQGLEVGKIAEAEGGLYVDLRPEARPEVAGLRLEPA
Described as above. The note with it: protein: recombinant; label: 5'-fluorescein.

For data set [2], the target named is T2, Hera_RBD. In words: NMR; Kd1, RBD core resonances (424-493); Anisotropy: 50 mM Tris/HCl pH 7.5, 150 mM NaCl, 5 mM MgCl2 (Fig 2), 25 C, 50 nM RNA; EMSA: same Tris/NaCl, 12% glycerol, 25 C; NMR: 25 mM Bis-Tris/HCl pH 6.0, 50 mM NaCl, 10% D2O, 37 C. As to conditions: protein: recombinant; hairpin with 5' single strand.
The target in data set [3] is T2, Hera_RBD. In words: NMR; pH 6.0, 50 mM NaCl, 37 C; Anisotropy: 50 mM Tris/HCl pH 7.5, 150 mM NaCl, 5 mM MgCl2 (Fig 2), 25 C, 50 nM RNA; EMSA: same Tris/NaCl, 12% glycerol, 25 C; NMR: 25 mM Bis-Tris/HCl pH 6.0, 50 mM NaCl, 10% D2O, 37 C. The note with it: protein: recombinant.
The target of data set [4] is T2, Hera_RBD. The experiment in a line: ITC; 5 mM Mg2+; estimate, no initial baseline; Anisotropy: 50 mM Tris/HCl pH 7.5, 150 mM NaCl, 5 mM MgCl2 (Fig 2), 25 C, 50 nM RNA; EMSA: same Tris/NaCl, 12% glycerol, 25 C; NMR: 25 mM Bis-Tris/HCl pH 6.0, 50 mM NaCl, 10% D2O, 37 C. The note with it: protein: recombinant; label: none (NMR, ITC); 5'-fluorescein (EMSA); hairpin with 5' single strand.

For the next data set, the target named is T4, GST-Hera_RBD (Thermus thermophilus, UniProt O07897 424-510).
T4 sequence: T2 sequence
In words: EMSA; 6 uM RNA; 12% glycerol; Anisotropy: 50 mM Tris/HCl pH 7.5, 150 mM NaCl, 5 mM MgCl2 (Fig 2), 25 C, 50 nM RNA; EMSA: same Tris/NaCl, 12% glycerol, 25 C; NMR: 25 mM Bis-Tris/HCl pH 6.0, 50 mM NaCl, 10% D2O, 37 C. The note with it: protein: recombinant; tags: N-terminal GST; label: none (NMR, ITC); 5'-fluorescein (EMSA); hairpin with 5' single strand.

In data set [5] the target is T2, Hera_RBD. The experiment in a line: NMR; CSP pattern similar to 21mer; Anisotropy: 50 mM Tris/HCl pH 7.5, 150 mM NaCl, 5 mM MgCl2 (Fig 2), 25 C, 50 nM RNA; EMSA: same Tris/NaCl, 12% glycerol, 25 C; NMR: 25 mM Bis-Tris/HCl pH 6.0, 50 mM NaCl, 10% D2O, 37 C. The note with it: protein: recombinant; hairpin with 5' single strand.
The target of data set [6] is T2, Hera_RBD. In words: NMR; core CSPs, none in C-tail; Anisotropy: 50 mM Tris/HCl pH 7.5, 150 mM NaCl, 5 mM MgCl2 (Fig 2), 25 C, 50 nM RNA; EMSA: same Tris/NaCl, 12% glycerol, 25 C; NMR: 25 mM Bis-Tris/HCl pH 6.0, 50 mM NaCl, 10% D2O, 37 C. As to conditions: protein: recombinant.

B1: 32/9mer (mixed)
RNA 1: GCAGGUCCCAAGGGUUGGGCUGUUCGCCCAUU
RNA 2: UUGGGACCU
For B1, the binding result in the data set with Hera full-length is recorded as “binds”.

B2: 4mer (ssRNA)
RNA: GGGC
Regarding B2, the values for the Kd with Hera_RBD [1] and with Hera_RBD_dC-tail were 11 µM and 8 µM, respectively.

B3: 21mer_mod (structured_RNA)
RNA: CACUUGGGCUGUUCGCCCAUU
On to B3, for which, in the data set with Hera_RBD [2], the Kd was roughly 52.9 µM.

B4: 19mer (structured_RNA)
RNA: GUUGGGCUGUUCGCCCAUU
Regarding B4, the Kd with Hera_RBD [3] (hairpin) is roughly 75 µM.

B5: 21mer (structured_RNA)
RNA: GGGUUGGGCUGUUCGCCCAUU
For B5, the dissociation constant (Kd) with Hera_RBD [4] was roughly 40 µM; with Hera_RBD [3] (label: none (NMR, ITC), 5'-fluorescein (EMSA), hairpin with 5' single strand), roughly 6 µM; with GST-Hera_RBD it was roughly 23 µM.

B6: 21mer_modloop (structured_RNA)
RNA: GGGUUGGGCUAUUCGCCCAUU
For the molecule B6, the binding result with Hera_RBD [5] is “binds”.

B7: 5mer (ssRNA)
RNA: GGGCC
Regarding B7, the binding result with Hera_RBD [6] was “binds”.
